Reference: publication PMC2747274, “Structural Studies of a Four-MBT Repeat Protein MBTD1” (PLoS ONE, 2009)
Where no end group is shown, it is not given here.

Target: T1, human L3MBTL1 R467C mutant containing 3 MBT repeats (residues 200-522, 3MBT) (human)
T1 construct: also called L3MBTL1 Arg467Cys mutant; source: expressed and purified as previously described [20]
Assay: ITC; L3MBTL1 R467C mutant titrated with H4K20me2; data not shown
Settings: both partners purified

Binder: RHRK(dimethyl)VLRDN [H4K20me2 peptide (used for co-crystallisation and ITC with L3MBTL1 R467C)]
- stoichiometry N: 1
